doi:10.1101/2023.03.27.534461 (bioRxiv, 2023)

Target: the molecule itself
Assay: cryo-EM structure; 100 nM unmodified nucleosome with 10 μM Bre1-Bre1-Rad6 fusion protein, 20 mM HEPES pH 7.5, 50 mM NaCl, 1 mM DTT, room temperature 30 min; cross-linked with glutaraldehyde, then Superdex 200; three states resolved

B1: Bre1 591–700 (domain or fragment, yeast, UniProt Q07457 591-700, looked up)
chain: KLNDTEIELKHFKQKASHLESKCEKLHDTLFRGNNKNKGSSDEALVEELANFRTLVYCSLCSKNWKNMAIKTCGHVFCENCCKERLAARMRKCPTCNKAFSSNDLLTVHL
notes: Bre1, yeast E3 ubiquitin ligase, residues 591-700: coiled coil that mediates dimerization and RING domain; In the structure the two copies of Bre1(591-700) stood on one chain of the fusion m1, joined by a (GGS)4 linker; written here as a molecule of its own for the pairs Bre1 with H2A and Bre1 with Bre1; also called Bre1-A; Bre1-B; source: E. coli BL21(DE3)Rosetta2, purified, as part of the …
binding result: binds
